Assay results from the nanobody polyreactivity screen of Harvey et al. (2022).

Experiment: yeast display, Sf9 membrane polyspecificity reagent, FACS + sequencing; frameworks hold sequencing errors
How it was run: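 Nanobodies from a synthetic yeast display library (Saccharomyces cerevisiae BJ5465), induced 36–48 hours with galactose, were stained 1 hour at 4 °C with 10% biotinylated, detergent-solubilized Sf9 membrane reagent, enriched on streptavidin microbeads, then FACS-sorted. Anti-HA (expression) and streptavidin (reagent binding) fluorescence set low and high (top ~1%) gates. Polyreactivity labels come from the gate of origin. Genes were colony-PCR amplified, MiSeq 2 × 250 sequenced and filtered by CDR length.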

Row | Sequence | polyreactivity (PSR sort gate)
1 | QVQLVESGGGLVQAGGSLRLSCAASGSIFPVNAMGWYRQAPGKERELVAAISEGSTSTYYADSVKGRFTISRDNAKNTVYLQMNSLKPEDTAVYYCAADYDTGYEYWGQGTQVTVSS | low polyreactivity
2 | QVQLVESGGGLVQAGGSLRLSCAASGRNFSHNAMGWYRQAPGKERELVAAISSRAGRTYADSVKGRFTISRDNAKYTVYLQMNSLKQEDTGVYYCAVRSKGKDVGYWGQGTQVTVSS | high polyreactivity
3 | QVQLVESGGGLVQAGGSLRLSCAASGRTFPVYDMGWYRQAPGKERELVAGITGSGGRTYYADSVKGRFTISRDNAKNTVYLQMNSLKPEDTAVYYCAADRNLYWDQHEYWGQGTQVTVSS | low polyreactivity
4 | QVQLVESGGGIVQAGGSLRLSCAASGFIFSSYAMGWYRQAPGKERELVAAITVRAGRTYYADSVKGRFTISRDNAKKTVYLQMNSLKPEDTAVYYCNAVSTAVIGYEYDYWGQGTQVTVSS | high polyreactivity
5 | QDQLVESGGGLVQSGGSLLLSCAPSGSTFVWYAMGWYRQERGKEMEFDATISWSDGSTYYADSVKGRFTISRDNPKNTVYLQMNILKPEDTAVYYCAAEQYGYYYSLWEYDNIWEGYWGPGTQVTVSS | low polyreactivity
6 | QVQLVESGGGLVQAGRSLRLSCSASGFSFSFYSMGWYRQAPGKERELVAAISQSGGSTYYADSVKGRFIISLDNAKHTVYLQKNSLKPEDTAVYYCNRGLRRHQSDDYWGQGTQVTVSS | high polyreactivity
7 | QVQLVESGGGLVQAGGSLRLSCAASGFIFLQNAMGWYRQAPGKERELVAVIRLSSCSTYYADSVKGRFTISRDNAKNTVYFEMNSLKPEDTAVYYCAARGYYSGQTTIGMDYWGQGTQVTVSS | low polyreactivity
8 | QVQLVESGGGLVQAGGSLRLSCAASGRTFGKNAMGWYRQAPGKEREYVAAITSRGGSTYYADSVKGRFTISRDNAKNTVYLKMYSLKPDDTAFYFCNREYKRPSQRTEHYYWGQGTQVTVSS | low polyreactivity
9 | QVQLVESGGGLVQAGGSLRLSCAASGFTFYYNAMGWYRQAPGKERELVAVISSSGSRTYYADSVKGRFTISRYNAKNTVYLQMNSLKPEDTAVYYCAAARIGTRDYWGQGTQVSVSS | high polyreactivity
10 | QVQLVESGGGSVQAGGSLRLSCAASGRTFVFNAMGWYRQAPGKESELVAGISGSGGSTYYAESVKGRFTISRDNAKNNVYLQMNSLKPEDTAVYYCANTFPRKELDQESVSGLGYWGQGTQVTVSS | low polyreactivity
11 | QVQLVESGGGLVQAGGSLRLSCAASGSTIVDYAMGWYRQAPGKERELVAAITSGDSTNYADSVKGRFTISRDNAKNTVYLLMKSLKPEDTAVYYCAARLRYSFWYWDDYWGQGTQVSVSS | high polyreactivity
12 | QVQLVESGGGLVQAGGSLRLSCAASGGIFRIYAMGWYRQAPGKERELVASISRSGGRTYYADSVKGRFTISRDNAKNTVYLQMNSLKPEDTAVYYCAVSLQGYNQVDYYYWGQGTQVTVSS | high polyreactivity
13 | QVQLVESGGGLVQAGGSLRLSCAASGFIFKPNAMGWYRQAPGKERELVAAITWGGDNTYYADSVKGRFTISRDNAKNTVYLQMNSLKPDDTAVYYCAAEWKFHSDASYIYDYWGQGTQVTVSS | high polyreactivity
14 | QVQLVESGGGLVQAGGSLRLSCAASGRIFKYNAMGWYRQAPGKERELVAAISGRGVSTYYADSVKGRFTISRDNAKNPVYLQMNSLKPEDTAVYYCAAETVHGSADFDDWGQGTQVTVSS | low polyreactivity
15 | QVQLVESGGGLVQAGGSLRLSCAASGSIFWYNAMGWYRQAPGKERELVAAINWSGGSTFYADSVKGRFTISRDNAKNTVFLQMNSLKPEDTAVYYCAADDWYTGYDYWGHGTQVTVSS | high polyreactivity
16 | QVQRVESGGGLGLAGGSLRLSCAASGITFVLYALGGYRQAPGKERALVASITWDATDTYYADSVKGRFTISRDNAKNTEYIPMNSLKPDDTAVSYCNAAYYNYWWLEYDYWGQGTQVTVSS | high polyreactivity
17 | QVQLVESGGGLVQAGGSLRLSCAASGSTFSRNAKGWYRQAPGKERELVAAITRSGGSTYYADSVKGRFTISRDNAKNTVYLQMNSLKPEDTAVYYCAVAVPRGVYLYDYWGQGTQVTVSS | low polyreactivity
18 | QVQLVESGGGLVQAGASLRLSCAASGLTFIFYAMGWYRQAPGKERELVAAISVSGGCTYYADSVKGRFTISRDNAKNTVYLQMNSLKPEDTAVYYCAADREHFATYGPHMDYWGQGTQVTVSS | low polyreactivity
19 | QVQLVESGGGLVQAGGSLSLSCAASGSIFYYNAMGWYRQAPGKERELVAAITSSAITNYADSVKGRFTISRDNAKNTVYLQMKSRKPEDTAVYYCAGRITTRPRSTRKRVWVDYWGQGTQVTVSS | high polyreactivity
20 | QVQLVESGGGLVQAGGSLRLSCAASGFIFYSNAMGWYRQAPGKERELVAAISWDAGSTYYADSVKGRFTISRDNAKNTVYLQMNSLKPEDTAVYYCATDRIVGRYIYNNWGQGTQVTVSS | high polyreactivity
21 | QVQLVESGGGLVQAGGSLRLSCAASGIIFYDYAMGWYRQAPGKERELVAAISGSGGSTYYADSVKGRFTISRDNAKNTVYLQMNSLKPEDTAVYYCAARFTRQMYYWGQGTQVTVSS | high polyreactivity

Row | Sequence | polyreactivity (PSR sort gate)
22 | QVQLVESGGGLVQAGGSLRLSCAASGCIFTYNTMGWYRQAPGKERELVAAISGRGGRTYYADSVKGRFTISRDNAKNTVYLQMNSLKPEDTAVYYCNARKYSQKIYGNYNYWGKGTQVTVSS | high polyreactivity
23 | QVQLVESGAGLVQAGGSLRLSCAAYGLIFTYNAMGWYRQAPWKERKLVARITSGGNTNYADSVKGRFTISRDYAKNTVYLQMNSLKPEDTAVYYCATCLYWFTNRYGYWGQGTQVTVSS | low polyreactivity
24 | QVQLVESGGGLVQAGGSLRLSCAASGFTFDSYAMGWYRQAPGNDRELVAAISYRGGSTYYADSVKGRFSISRDNAKNTVYLQMNSLKPEDTAVFYCAARSPSAAYGSYGVYSWGQGTQVTVSS | high polyreactivity
25 | QVQLVESGGGLVQAGGSLRLSCAASGRILYGYTMGWYRQAPGKERELVAAISSNGDSTYYADSVKGRFTISRDNAKNTVYLQLNSLKPEDTAVYYCAAVSIGPGEYDYWGQGTQVTVSS | low polyreactivity
26 | QVQLVESGGGLVQAGGSLRLSCAASGSIFLYYAMGWYRQAPGKERELVATIRGSGSSTYYADSVKGRFTISRDNAKNTVYLQMNSLKPEDTAVYYCAAKGYRWFRHGGYYFKFDYWGQGTQVTVSS | high polyreactivity
27 | QVQLVESGGGLVQAGGSLRLSCAASGSIFKYNPMGWYRQAPGKEMELVATISGGGRTYYADSVKGRFTISRDNAKNTVYLQMNSLKPEDTAVYYCAARKRGTFTYDYWGQGTQVTVSS | high polyreactivity
28 | QVQIVESGGGLVQAGGSLRLSCAASGFTFYYYAMGWYRQAPGKERELVAAIDTGGSTNYADSVKGRFTISRDNAKNTVYLQMNRLKPEDTSVYYCNADTPDHYGHYDYWGQGTQVTVSS | low polyreactivity
29 | QVQLVESGGGLVQAGGSLRLSCAASGITFPVYAMGWYRQAPGKEREFVASIRFSTGRTYYADSVKARFTISRDYAKNTVYLQMNSLKPEDTAVYYCRGTTQSPYNSWGQGTQVTVSS | high polyreactivity
30 | QVQLVESGGGLVQAGGSLRLSCAASGSIFSNNAMGWYRPAPGKERELVAAITRSGGNTYYADSVKGRFTISRDNAKNTVYLQMNSLKPEDTAVYYCAASNSHVGPNDYWGQGTQVTVSS | high polyreactivity
31 | QVQLVESGGGLVQAGGSLRLSCAASGSIFKGYDMGWYRQAPGKERELVAAISSGSTNYADSVKGRFTISRDNAKNTVYLQMNSLKPEDTAVYYCNADLGRATFYQRVVIERGGYWGQGTQVTVSS | low polyreactivity
32 | QVQLVESGGGLVQAGGSLRLSCAASGSTFYDYAMGWYRQAPGKERELVAAISRSGGSTYYADSVKGRFTISRDNAKNTVYLQRNSLKPEDTAVYYCAASRATLLRYGYWGQGTQVTVSS | low polyreactivity
33 | QVQLVESGGGLVQAGGSLRLSCAASGRTFARNAMGWYRQAPGKERELGAAISSSGGSTYYADSVKGRFTISRDNAKNTVYLQMNSLKPEDTAVYYCDARSRHAYGYWGQGTQVTVSS | high polyreactivity
34 | QVQLVESGGGLVQAGGSLRLSCAASGSTLPGFTMGWYRHAPGKERELVAAISWSGGSTSYADSVKGRFTISRDNAKNTVYLQMNSLKPEDTAVYYCDVDRFWRPVRSGSTYDYWGQGTQVTVSS | low polyreactivity
35 | QVQLVESGGGLVQAGGSLRLSCAASGRIFVVYAMGWYRQAPGKERELVAAITYGGGSTHYADSVKGRFTISRDNAKNTVYLQMNSLKPVDTAVYYCAADVYLVKYDYWGQGTQVTVSS | low polyreactivity
36 | QVQLVESGGGLVQAGGSLRLSCAASGSSLTYNAMGWYRQAPGKERELVAVISARGGRTYYADSVKGRFTISRDNAKNTVYLQMNSLKPEDTAVYYCAAVFYYSYYRITSGDYWGQGTQVTVSS | high polyreactivity
37 | QVQLVESGGGLVQAGGSLRLSCAASGRTFGTYAMGWYRQAPGKEREFVAAISRNGGSTYYADSVKGRFTISRDNAKNTVYLQMNSLKPEDTAVYYCATGVLWSAYRYRPNLGYDDWGQGTQVTVSS | low polyreactivity
38 | QVQLVESGGGLVQAGGSLRLSCAASGNIFLYYAMRWYRQAPGKERELVADIDSSGASTYYADSVKVRFTISRDNAKNTVYLQMNSLKPEDTAVYYCAAEFHWWYAGYDYGYWGQGTKVTVSS | low polyreactivity
39 | QVQLVESGGGLVQAGGSLRLSCAASGRTFFRYVMGWYRQAPGKERELVAAISRSGGSTYYADSVKGRFTISRDNAKITVYLQMNSLKPEDTAVYYCNTVARSTVVPTEFDYWGQGTQVTVSS | high polyreactivity
40 | QVQLVESGGGLVQAGGSLRLSCPASGRTFWWYAMGWYRQAPGKEREIVAAISQRGTSTYYADSVKGRFTISRDNAKNTVYLQMNSLNPEDTAVYYCAADRPYYPLKYDYWGQGTQVTVSS | high polyreactivity
41 | QVQLVESGGGLVQAGGRLRLSCAASVGIFYYYAMGWYRQAPGKERELVATITYTGGSTYADSVKGRFTISRDNAKNTVYLQMNSLKPEDTAVYYCAADGRSRSYYGYDHWGQGTQVTVSS | low polyreactivity
